Data reported in patent publication US20210187071A1, “COMPOSITIONS COMPRISING MDA-7/IL-24 PROTEIN AND METHODS OF USE” (VIRGINIA COMMONWEALTH UNIVERSITY, priority 2017, published 2021).
Entries after “also recorded” stand apart in the source; their conditions may differ. Read-outs that look alike come from different tables or passages of the source.

Key:
[1] = system: PC3-ML cells; conditions: for bone metastasis (BLI signal / luciferase intensity): MDA-7/IL-24 protein 5 mg/kg tail vein, 6 doses over three weeks, vs untreated control; for survival: MDA-7/IL-24 protein 5 mg/kg, 6 doses; for toxicity in animals: delivered repeatedly systemically in mice
Procedure: In vivo Metastasis Studies: All animal studies were approved by the Institutional Animal Care and Use Committee (Virginia Commonwealth University). For experimental bone metastasis assays, 6-8-week-old male athymic nude mice (purchased from Harlan, USA) were injected with 1×10^5 PC3-ML cells stably expressing firefly luciferase gene through an intracardiac route. For determining the therapeutic activity of MDA-7/IL-24 protein, mice received an intravenous injection of recombinant protein (5 mg/kg), one day after implantation of cells. Animals were treated with therapeutics for a total of 6 times (2× a week for first 3 weeks). […] Image of the bone region was monitored by a BLI (bioluminescence imaging) method using an IVIS® imaging system (15, 19, 20).
In this model, stable luciferase expressing PC3-ML cells were injected in male athymic nude mice through an intracardiac route to produce bone metastases. The expansion, invasion, and migration of PC3-ML cells were monitored by IVIS® imaging (15, 20, 23). […] BLI imaging followed development of metastatic lesions in bone. […] To determine the effect of MDA-7/IL-24 on primary bone marrow in animals, cells from the bone cavity were isolated and treated with His-MDA-7 at different doses in vitro.

[2] = system: PC cells; test: Colony formation (clonal) assay in PC cell lines; type: cell-based; conditions: 200 cells plated, colonies counted 2 weeks after treatment
Procedure: (§1) MTT Cell Proliferation and Clonal Assays: Cell proliferation assays were done as described previously (25). Briefly, 2,000 cells were seeded in each well of a 96-well plate and allowed to attach overnight. Cells were treated with complete media in the presence or absence of different concentrations of MDA-7/IL-24 protein. At appropriate time points, cells were further incubated with MTT (3-(4, 5-di methyl thiazol-2-yl)-2, 5 diphenyl tetrazolium bromide) reagents. Finally, DMSO was applied to dissolve the blue salt and the OD was measured at 560 nm (25). For determining long-term effects, colony formation (cloning) assays were performed as described earlier (26). Briefly, 200 cells were plated and allowed to grow in the presence or absence of MDA-7/IL-24 for an additional 15 days. Culture media was replaced with fresh media containing MDA-7/IL-24 protein once a week, two times in total.

[3] = system: primary bone marrow cells; test: Live-dead cell assay on primary bone marrow cells; type: cell-based, mouse; conditions: treated in vitro at different doses
Procedure: Live-Dead Cell Assay: Live and dead cells were observed by confocal laser microscopy (Zeiss, Germany) after staining with live/dead staining reagent (Invitrogen, Carlsbad, Calif., USA) as per the manufacturer's instructions. The images were analyzed by Zeiss software.
BLI imaging followed development of metastatic lesions in bone.

[4] = system: PC3-ML cells; test: MTT cell proliferation assay in PC3-ML cells; type: cell-based; conditions: PC3-ML cells treated with MDA-7/IL-24 protein
Procedure: Purification of Recombinant His-MDA-7 Protein: IM-PHFA cells were infected with Ad.5-His-mda-7 using a published protocol (24). Cell supernatant was mixed with Ni-NTA (a nickel-nitrilotriacetic) acid slurry to allow binding of MDA-7/IL-24 to the Ni-NTA beads. Twenty-four hours after incubation, the Ni-NTA beads were collected, washed, and the purified MDA-7/IL-24 protein was eluted in imidazole buffer. The protein was validated by western blotting using anti-MDA-7 antibody (Genhunter Corporation, Nashville, Tenn., USA). Biological activity was checked in PC3-ML cells by MTT assay (25).
as §1, with “Culture media was replaced with fresh media containing MDA-7/IL-24 protein once a week, two times in total.” left out

[5] = system: PC3-ML^Akt; test: Experimental bone metastasis model with PC3-ML cells over expressing constitutively active Akt; type: in vivo, male athymic nude mice; conditions: MDA-7/IL-24 protein 5 mg/kg tail vein, 6 doses over three weeks
Procedure: To evaluate the role of Akt in vivo, metastatic PC3-ML cells and PC3-ML cells over expressing constitutively active Akt (PC3-MI/**) (FIG. 5A) carrying firefly luciferase were injected into male athymic nude mice through the intracardiac route. Clone 1 was used for the in vivo studies, which was validated for expression of Akt downstream pathway gene expression by western blotting (FIG. 14). Proliferation, invasion, and migration of the tumor cells were monitored by IVIS® imaging. […] The Akt overexpressing PC3-ML cells were more metastatic than the control PC3-ML cells. […] These observations illustrate the significance of Akt in PC-mediated bone metastasis development, which can be partially abrogated by MDA-7/IL-24-treatment (FIG. 5B). […] To investigate osteoclastic differentiation in these animals, bone marrow cells were isolated after completion of the study. Osteoclast differentiation was induced as described above. […] Osteoclast differentiation assays further illustrated the importance of Akt in PC-mediated bone metastasis (FIGS. 5D and 5E). A schematic representation of the proposed role of MDA-7/IL-24 protein in PC-mediated bone metastasis through modulation of the bone microenvironment is presented in FIG. 6. […]

[6] = system: RAW 264.7; test: MTT proliferation assay in RAW 264.7 cells; type: cell-based, mouse; conditions: His-MDA-7 10 μg/ml, 5 days
Procedure: as §1, with “Briefly, 200 cells were plated and allowed to grow in the presence or absence of MDA-7/IL-24 for an additional 15 days. Culture media was replaced with fresh media containing MDA-7/IL-24 protein once a week, two times in total.” left out
To investigate the effect of MDA-7/IL-24 on osteoclast differentiation, bone marrow cells from athymic nude mice were isolated and induced to differentiate with RANKL in the presence or absence of MDA-7/IL-24 protein. Five days after induction with RANKL, osteoclast differentiation was measured by counting multinucleated cells. Cells positively stained for TRAP and multinucleated cells were quantified under a light microscope (FIG. 9A). […] Using RAW 264.7 cells, different genetic markers associated with osteoclastic differentiation were monitored (33). […] RNA was isolated after 5 days of treatment and real time PCR quantified expression of TRAP, Cathepsin K (CTSK), and Calcitonin Receptor (CTR) genes. […]

[7] = listed as recombinant MDA-7/IL-24

B1: MDA-7/IL-24 protein: Recombinant His-tagged MDA-7/IL-24 protein purified on Ni-NTA from supernatant of IM-PHFA cells infected with Ad.5-His-mda-7 (protein)
chain: QEFHFGPCQVKGVVPQKLWEAFWAVKDTMQAQDNITSARLLQQEVLQNVSDAESCYLVHTLLEFYLKTVFKNYHNRTVEVRTLKSFSTLANNFVLIVSQLQPSQENEMFSIRDSAHRRFLLFRRAFKQLDVEAALTKALGEVDILLTWMQKFYKL
- bone metastasis (BLI signal / luciferase intensity) [1]: significantly fewer metastatic lesions
- bone metastasis (BLI signal / luciferase intensity) ([1]; listed as MDA-7/IL-24): significantly less evidence of metastasis; also recorded: a significant decrease in metastasis; also recorded: significant inhibition in luciferase intensity
- bone metastasis (BLI signal / luciferase intensity) [1, 7]: significantly less metastatic lesions in their femurs; also recorded: significantly reduced the occurrence of bone metastasis
- survival [1]: enhancement of survival
- survival ([1]; listed as MDA-7/IL-24): increased
- toxicity in animals [1]: non-toxic
- toxicity in animals [1, 7]: without promoting toxicity
- development of lung metastases ([1]; six doses of MDA-7/IL-24 protein 5 mg/kg): suppressed development of lung metastases
- proliferation of PC cells (colony formation) [2]: significantly reduced the proliferation of PC cells
- toxicity in primary bone marrow cells ([3]; listed as His-MDA-7): No apparent toxicity
- toxicity in primary bone marrow cells ([3]; listed as MDA-7/IL-24): no effect
- Cell proliferation (MTT assay) [4]: significant inhibition in cell proliferation
- Cell proliferation (MTT assay) ([4]; listed as MDA-7/IL-24): significantly impaired
- bone metastasis by PC3-ML^Akt cells [5]: diminished the inhibitory effects
- bone metastasis by PC3-ML^Akt cells ([5]; listed as MDA-7/IL-24): inhibited metastasis
- Proliferation of RAW 264.7 (MTT) [6]: not affected
